Measured values: patent publication US20250320281A1

Legend:
Assay in all cases: cell-based or functional assay
[1] = molecular target: HIV-1 Env of isolate PVO.4 (Acute), clade B, on pseudovirus (HIV-1)
[2] = molecular target: HIV-1 envelope glycoprotein (Env) of isolate 93RW029, clade A (HIV-1)
[3] = molecular target: HIV-1 Env of isolate TRO.11 (Acute), clade B, on pseudovirus (HIV-1)
[4] = molecular target: HIV-1 Env of isolate MGRM-Chronic-B-002, clade B, on pseudovirus (HIV-1)
[5] = molecular target: HIV-1 Env of isolate 97ZA012 (clade C) (HIV-1 isolate 97ZA012)
[6] = molecular target: HIV-1 Env of isolate LAVI_C3 (HIV-1)
[7] = molecular target: HIV-1 IAVI-C3 envelope glycoprotein (Env) on pseudovirus (HIV-1)
[8] = molecular target: HIV-1 Env of pseudovirus MGRM-AG-012 (clade CRF_AG) (HIV-1)
[9] = molecular target: HIV-1 Env of pseudovirus MGRM-Chronic-B-018 (HIV-1)
[10] = molecular target: HIV-1 Env of isolate MGRM-D-001 (pseudovirus) (HIV-1)
[11] = molecular target: HIV-1 Env of isolate MGRM-D-026 (pseudovirus) (HIV-1)
[12] = molecular target: HIV-1 Env of isolate MGRM-F1-006 (pseudovirus) (HIV-1)
[13] = molecular target: HIV-1 Env of isolate MGRM-Chronic-B-024 (subtype B pseudovirus) (HIV-1)
[14] = molecular target: HIV-1 Env of isolate MGRM-Chronic-B-017 (subtype B pseudovirus) (HIV-1)
[15] = molecular target: HIV-1 Env of isolate APV_17 (subtype B pseudovirus) (HIV-1)
[16] = molecular target: HIV-1 Env of isolate MGRM-D-016 (pseudovirus) (HIV-1)
[17] = molecular target: HIV-1 Env of isolate MGRM-AE-007 (HIV-1)
[18] = molecular target: HIV-1 Env of isolate MGRM-D-001 (clade D), on pseudovirus (HIV-1)
[19] = molecular target: HIV-1 Env of isolate MGRM-AE-002 (subtype AE) (HIV-1)
[20] = molecular target: HIV-1 Env of isolate MGRM-AE-005 (subtype AE) (HIV-1)
[21] = molecular target: HIV-1 Env of isolate 94KE105 (subtype AC) (HIV-1)
[22] = molecular target: HIV-1 Env of isolate MG RM-D-012 (HIV-1)
[23] = molecular target: HIV-1 Env of isolate 93UG077 (HIV-1)
[24] = molecular target: HIV-1 Env of isolate MGRM-Chronic-B-020 (subtype B) (HIV-1)
[25] = molecular target: HIV-1 envelope glycoprotein (Env) of isolate MGRM-C-026 (HIV-1)
[26] = molecular target: HIV-1 Env of isolate 92UG031 (HIV-1)
[27] = molecular target: HIV-1 Env of isolate MG RM-D-021 (HIV-1)
[28] = molecular target: HIV-1 Env of isolate 92BR020 (HIV-1)
[29] = molecular target: HIV-1 Env of isolate MG RM-D-013 (HIV-1)
[30] = molecular target: HIV-1 Env of isolate MGRM-Chronic-B-012 (subtype B) (HIV-1)
[31] = molecular target: HIV-1 Env of isolate MGRM-Chronic-B-003 (subtype B) (HIV-1)
[32] = molecular target: HIV-1 Env of isolate MGRM-A-005 (HIV-1)
[33] = molecular target: HIV-1 Env of isolate PVO.4 (subtype B) (HIV-1)
[34] = molecular target: HIV-1 Env of isolate MGRM-C-002 (subtype C) (HIV-1)
[35] = molecular target: HIV-1 Env of isolate MGRM-AG-012 (subtype AG) (HIV-1)
[36] = molecular target: HIV-1 envelope glycoprotein (Env) of isolate MGRM-C-019 (HIV-1)
[37] = molecular target: HIV-1 Env of isolate APV-17 (HIV-1)
[38] = molecular target: HIV-1 Env of isolate MGRM-A-014 (subtype A) (HIV-1)
[39] = molecular target: HIV-1 Env of isolate MGRM-Chronic-B-011 (subtype B) (HIV-1)

5329_C19 (PGT-136) (antibody), sequence (VH): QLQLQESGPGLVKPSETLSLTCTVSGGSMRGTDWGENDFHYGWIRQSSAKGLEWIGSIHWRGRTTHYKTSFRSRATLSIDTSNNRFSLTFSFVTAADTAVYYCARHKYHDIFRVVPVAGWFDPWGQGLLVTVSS
5329_C19 (PGT-136) (antibody), sequence (VL): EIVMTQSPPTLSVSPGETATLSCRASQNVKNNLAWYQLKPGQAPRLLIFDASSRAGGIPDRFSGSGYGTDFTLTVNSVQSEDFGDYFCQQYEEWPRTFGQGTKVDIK
5345_I01 (PGT-137) (antibody), sequence (VH): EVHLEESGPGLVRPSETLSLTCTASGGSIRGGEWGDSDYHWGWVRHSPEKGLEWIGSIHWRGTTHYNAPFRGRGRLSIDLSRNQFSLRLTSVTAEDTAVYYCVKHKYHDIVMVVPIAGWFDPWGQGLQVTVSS
5345_I01 (PGT-137) (antibody), sequence (VL): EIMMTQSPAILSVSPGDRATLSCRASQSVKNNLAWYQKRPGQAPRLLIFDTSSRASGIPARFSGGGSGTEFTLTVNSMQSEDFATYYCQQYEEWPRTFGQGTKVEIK
4970_K22 (PGT-144) (antibody), sequence (VH): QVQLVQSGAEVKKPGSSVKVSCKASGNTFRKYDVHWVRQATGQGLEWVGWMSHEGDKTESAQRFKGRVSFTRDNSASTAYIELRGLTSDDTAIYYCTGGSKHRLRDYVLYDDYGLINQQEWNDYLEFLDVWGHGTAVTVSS
4970_K22 (PGT-144) (antibody), sequence (VL): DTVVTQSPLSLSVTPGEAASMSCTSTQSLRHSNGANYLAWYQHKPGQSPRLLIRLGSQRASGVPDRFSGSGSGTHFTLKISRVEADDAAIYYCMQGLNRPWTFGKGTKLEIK
4995_E20 (PGT-142) (antibody), sequence (VH): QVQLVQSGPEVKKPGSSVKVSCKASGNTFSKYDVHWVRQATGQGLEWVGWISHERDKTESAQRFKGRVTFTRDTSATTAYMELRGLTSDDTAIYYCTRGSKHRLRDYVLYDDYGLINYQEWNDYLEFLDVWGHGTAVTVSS
4995_E20 (PGT-142) (antibody), sequence (VL): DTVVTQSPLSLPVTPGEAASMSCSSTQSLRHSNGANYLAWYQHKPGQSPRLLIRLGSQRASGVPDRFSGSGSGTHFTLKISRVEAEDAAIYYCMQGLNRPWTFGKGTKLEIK
4993_K13 (PGT-141) (antibody), sequence (VH): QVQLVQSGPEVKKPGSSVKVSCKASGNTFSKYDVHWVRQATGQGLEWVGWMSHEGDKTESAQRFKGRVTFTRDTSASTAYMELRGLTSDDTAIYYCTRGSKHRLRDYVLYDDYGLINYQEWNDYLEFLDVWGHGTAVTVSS
4980_N08 (PGT-143) (antibody), sequence (VH): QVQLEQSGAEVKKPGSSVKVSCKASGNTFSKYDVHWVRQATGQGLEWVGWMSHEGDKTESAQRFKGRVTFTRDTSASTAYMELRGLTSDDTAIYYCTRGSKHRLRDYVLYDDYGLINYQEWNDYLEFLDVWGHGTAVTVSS
4980_N08 (PGT-143) (antibody), sequence (VL): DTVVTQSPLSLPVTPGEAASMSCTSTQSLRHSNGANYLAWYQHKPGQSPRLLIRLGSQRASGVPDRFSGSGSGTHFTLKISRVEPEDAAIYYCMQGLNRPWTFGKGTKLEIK

Row | Substance | IC50 (µg/mL), pseudovirus neutralization [19] | IC50 (µg/mL), pseudovirus neutralization [20] | IC50 (µg/mL), pseudovirus neutralization [21] | IC50 (µg/mL), pseudovirus neutralization [22] | IC50 [23] | IC50 neutralization [24] | IC50 (µg/mL), pseudovirus neutralization [25] | IC50 [26] | IC50 (µg/mL), pseudovirus neutralization [27] | neutralization IC50 [28] | IC50 (µg/mL), pseudovirus neutralization [29] | IC50 neutralization [30] | IC50 neutralization [31] | IC50 [32] | IC50 neutralization [33] | IC50 neutralization [34] | IC50 (µg/mL), pseudovirus neutralization [35] | IC50 (µg/mL), pseudovirus neutralization [36] | neutralization IC50 [37] | IC50 (µg/mL), pseudovirus neutralization [38] | other results
1 | 1496_C09 (PG9) (TCN-109) (antibody) |  |  |  |  |  |  |  |  |  |  |  |  |  |  |  |  |  |  |  |  | IC50 (µg/ml), pseudovirus neutralization [1]: 4.01 µg/mL; IC50 (µg/ml), pseudovirus neutralization [2]: 1.19 µg/mL; IC50 (µg/ml), pseudovirus neutralization [3]: 5.43 µg/mL; IC50 (µg/ml), pseudovirus neutralization [4]: 1.41 µg/mL; IC50 (µg/ml), pseudovirus neutralization [5]: 1.27 µg/mL; IC50 [6]: 1.45 µg/mL; IC50, pseudovirus neutralization [7]: 12.9 µg/mL; IC50 [8]: 1.37 µg/mL; IC50 (µg/ml), pseudovirus neutralization [9]: 0.16 µg/mL
2 | 4838_L06 (PGT-121) (antibody) |  |  |  |  |  |  |  |  |  |  |  |  |  |  |  |  |  |  |  |  | IC50, pseudovirus neutralization [10]: 0.615 µg/mL; IC50, pseudovirus neutralization [11]: > 50 µg/mL; IC50, pseudovirus neutralization [12]: 5.33 µg/mL; IC50 (µg/mL), pseudovirus neutralization [13]: 0.195 µg/mL; IC50 (µg/mL), pseudovirus neutralization [14]: > 50 µg/mL; IC50 (µg/mL), pseudovirus neutralization [15]: 0.066 µg/mL; IC50, pseudovirus neutralization [16]: > 50 µg/mL; IC50 [17]: > 50 µg/mL
3 | 4877_D15 (PGT-122) (antibody) |  |  |  |  |  |  |  |  |  |  |  |  |  |  |  |  |  |  |  |  | IC50, pseudovirus neutralization [10]: 1.13 µg/mL; IC50, pseudovirus neutralization [11]: > 50 µg/mL; IC50, pseudovirus neutralization [12]: 3.27 µg/mL; IC50 (µg/mL), pseudovirus neutralization [13]: 2.31 µg/mL; IC50 (µg/mL), pseudovirus neutralization [14]: 5.66 µg/mL; IC50 (µg/mL), pseudovirus neutralization [15]: 0.25 µg/mL; IC50, pseudovirus neutralization [16]: > 50 µg/mL; IC50, pseudovirus neutralization [18]: 0.867 µg/mL; IC50 [17]: > 50 µg/mL
4 | 4970_K22 (PGT-144) (antibody) | > 50 µg/mL | > 50 µg/mL |  |  |  |  |  |  |  |  |  |  |  |  |  |  |  |  |  |  | 
5 | 4980_N08 (PGT-143) (antibody) | > 50 µg/mL | > 50 µg/mL |  |  |  |  |  |  |  |  |  |  |  |  |  |  |  |  |  |  | 
6 | 4993_K13 (PGT-141) (antibody) | > 50 µg/mL | > 50 µg/mL |  |  |  |  |  |  |  |  |  |  |  |  |  |  |  |  |  |  | 
7 | 4995_E20 (PGT-142) (antibody) | > 50 µg/mL | > 50 µg/mL |  |  |  |  |  |  |  |  |  |  |  |  |  |  |  |  |  |  | 
8 | 5114_A19 (PGT-128) (antibody) | 0.522 µg/mL | 0.032 µg/mL | 0.007 µg/mL | > 50 µg/mL | 0.014 µg/mL | 0.007 µg/mL | 0.007 µg/mL | > 50 µg/mL | 0.014 µg/mL | 0.009 µg/mL | 8.85 µg/mL | 0.026 µg/mL | 0.007 µg/mL | > 50 µg/mL | 0.005 µg/mL | 0.019 µg/mL | > 50 µg/mL | 0.01 µg/mL | 0.016 µg/mL | 0.007 µg/mL | IC50 neutralization [39]: 0.02 µg/mL
9 | 5123_A06 (PGT-125) (antibody) |  |  |  |  |  |  |  |  |  |  |  |  |  |  |  |  |  |  |  |  | IC50, pseudovirus neutralization [10]: 2.84 µg/mL; IC50, pseudovirus neutralization [11]: > 50 µg/mL; IC50, pseudovirus neutralization [12]: 0.035 µg/mL; IC50 (µg/mL), pseudovirus neutralization [13]: > 50 µg/mL; IC50 (µg/mL), pseudovirus neutralization [14]: > 50 µg/mL; IC50 (µg/mL), pseudovirus neutralization [15]: 8.06 µg/mL; IC50, pseudovirus neutralization [16]: 0.12 µg/mL; IC50, pseudovirus neutralization [18]: 2.31 µg/mL; IC50 [17]: 0.876 µg/mL
10 | 5136_H01 (PGT-131) (antibody) | > 50 µg/mL | 0.017 µg/mL | 0.013 µg/mL | > 50 µg/mL | > 50 µg/mL | 0.053 µg/mL | 1.67 µg/mL | > 50 µg/mL | 0.106 µg/mL | 6.16 µg/mL | 4.14 µg/mL | 15.7 µg/mL | > 50 µg/mL | > 50 µg/mL | > 50 µg/mL | > 50 µg/mL | > 50 µg/mL | 0.021 µg/mL | > 50 µg/mL | 15.4 µg/mL | IC50 neutralization [39]: 6.47 µg/mL
11 | 5145_B14 (PGT-127) (antibody) |  |  |  |  |  |  |  |  |  |  |  |  |  |  |  |  |  |  |  |  | IC50, pseudovirus neutralization [10]: 2.23 µg/mL; IC50, pseudovirus neutralization [11]: > 50 µg/mL; IC50, pseudovirus neutralization [12]: 7.17 µg/mL; IC50 (µg/mL), pseudovirus neutralization [13]: > 50 µg/mL; IC50 (µg/mL), pseudovirus neutralization [14]: > 50 µg/mL; IC50 (µg/mL), pseudovirus neutralization [15]: 10.4 µg/mL; IC50, pseudovirus neutralization [16]: > 50 µg/mL; IC50 [17]: > 50 µg/mL
12 | 5147_N06 (PGT-130) (antibody) | 1.53 µg/mL | 0.006 µg/mL | 0.004 µg/mL | > 50 µg/mL | 21.4 µg/mL | 0.014 µg/mL | 0.036 µg/mL | > 50 µg/mL | 0.156 µg/mL | 1.4 µg/mL | 0.429 µg/mL | 0.373 µg/mL | > 50 µg/mL | > 50 µg/mL | 5.17 µg/mL | > 50 µg/mL | > 50 µg/mL | 0.01 µg/mL | 10.7 µg/mL | 0.161 µg/mL | IC50 neutralization [39]: 0.153 µg/mL; IC50, pseudovirus neutralization [18]: > 10 µg/mL
13 | 5329_C19 (PGT-136) (antibody) | > 50 µg/mL | > 50 µg/mL | > 50 µg/mL | > 50 µg/mL | > 50 µg/mL | > 50 µg/mL | 0.006 µg/mL | > 50 µg/mL | > 50 µg/mL | 8.61 µg/mL | > 50 µg/mL | 43.1 µg/mL | > 50 µg/mL | > 50 µg/mL | > 50 µg/mL | > 50 µg/mL | > 50 µg/mL | 20.1 µg/mL | > 50 µg/mL | > 50 µg/mL | IC50 neutralization [39]: > 50 µg/mL; IC50, pseudovirus neutralization [18]: > 10 µg/mL
14 | 5343_B08 (PGT-135) (antibody) | > 50 µg/mL | > 50 µg/mL | 0.063 µg/mL | > 50 µg/mL | > 50 µg/mL | 0.057 µg/mL | 0.004 µg/mL | > 50 µg/mL | > 50 µg/mL | 0.073 µg/mL | > 50 µg/mL | 0.166 µg/mL | > 50 µg/mL | > 50 µg/mL | > 50 µg/mL | > 50 µg/mL | 41.9 µg/mL | 0.264 µg/mL | > 50 µg/mL | 0.636 µg/mL | IC50 neutralization [39]: > 50 µg/mL; IC50, pseudovirus neutralization [18]: > 10 µg/mL
15 | 5345_I01 (PGT-137) (antibody) | > 50 µg/mL | > 50 µg/mL | 18.5 µg/mL | > 50 µg/mL | > 50 µg/mL | 32.9 µg/mL | 0.011 µg/mL | > 50 µg/mL | > 50 µg/mL | 7.81 µg/mL | > 50 µg/mL | > 50 µg/mL | > 50 µg/mL | > 50 µg/mL | > 50 µg/mL | 8.03 µg/mL | > 50 µg/mL | > 50 µg/mL | > 50 µg/mL | 18.6 µg/mL | IC50 neutralization [39]: > 50 µg/mL
16 | PGV04 (antibody) |  |  |  |  |  |  |  |  |  |  |  |  |  |  |  |  |  |  |  |  | IC50 (µg/mL), pseudovirus neutralization [28]: 0.25 µg/mL
17 | VRC01 (antibody) | 0.217 µg/mL | 0.029 µg/mL |  |  |  |  |  |  |  |  |  |  |  |  |  |  |  |  |  |  | IC50 [22]: 0.216 µg/mL; IC50 [27]: 33.4 µg/mL; IC50 [29]: 0.087 µg/mL
